Assay results published in patent publication US7795221B2, “Linear natriuretic peptide constructs” (Palatin Technologies, Inc., priority 2006, dated 2010).
Square brackets hold non-standard residues; d marks the D form. Ends that are not written are not given here. Peptide text beside a SMILES is read from it. * marks the point of attachment. Piperazin2one(3S-Bu,6R-CO) = CCCC[C@@H]1NC[C@H](C(=O)*)NC1=O; X1 = N=C(N)NCCC[C@H]1C(=O)N[C@@H](C(N)=O)CN1*; keto‑piperazine surrogate = not defined here; Nle = CCCC[C@H](N)C(=O)O

T1: human natriuretic peptide receptor A (human, UniProt P16066 33-1061)
T1 sequence (looked up): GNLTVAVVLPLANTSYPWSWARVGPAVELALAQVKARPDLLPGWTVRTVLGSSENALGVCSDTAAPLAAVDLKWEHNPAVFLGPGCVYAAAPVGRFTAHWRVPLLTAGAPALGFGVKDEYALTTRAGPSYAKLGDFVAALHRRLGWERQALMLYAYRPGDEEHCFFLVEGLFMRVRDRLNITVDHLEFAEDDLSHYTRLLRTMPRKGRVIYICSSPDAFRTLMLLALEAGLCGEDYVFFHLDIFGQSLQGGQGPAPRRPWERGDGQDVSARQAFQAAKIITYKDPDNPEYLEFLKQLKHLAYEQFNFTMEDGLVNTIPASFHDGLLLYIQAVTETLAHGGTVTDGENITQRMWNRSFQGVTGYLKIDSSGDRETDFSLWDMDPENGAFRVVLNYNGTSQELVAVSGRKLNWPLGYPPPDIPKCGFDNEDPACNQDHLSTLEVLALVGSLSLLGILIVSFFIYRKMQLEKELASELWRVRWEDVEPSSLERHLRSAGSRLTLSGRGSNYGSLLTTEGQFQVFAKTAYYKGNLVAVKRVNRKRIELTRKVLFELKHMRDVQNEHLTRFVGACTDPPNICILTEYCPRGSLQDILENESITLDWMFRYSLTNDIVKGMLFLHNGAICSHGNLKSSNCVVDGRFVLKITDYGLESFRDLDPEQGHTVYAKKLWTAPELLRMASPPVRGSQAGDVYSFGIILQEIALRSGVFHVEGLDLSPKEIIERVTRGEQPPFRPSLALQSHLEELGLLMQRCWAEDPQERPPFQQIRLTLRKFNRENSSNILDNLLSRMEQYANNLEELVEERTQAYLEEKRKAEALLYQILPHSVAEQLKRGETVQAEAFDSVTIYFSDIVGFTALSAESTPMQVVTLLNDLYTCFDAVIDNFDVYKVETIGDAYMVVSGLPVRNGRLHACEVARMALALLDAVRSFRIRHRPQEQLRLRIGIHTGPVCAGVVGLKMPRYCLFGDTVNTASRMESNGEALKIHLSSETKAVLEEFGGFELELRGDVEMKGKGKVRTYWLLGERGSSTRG


Legend:
[1] = design: species or system Sprague-Dawley rats; conditions: rat, in vivo, iv, 2 mg/kg
Method: . […] The total run time was 6 minutes.

[2] = molecular target: T1, human natriuretic peptide receptor A; experiment: cell-based or functional assay
[3] = molecular target: T1, human natriuretic peptide receptor A; experiment: competitive inhibition of [125I]-ANP binding to HEK-hNPRA membrane homogenates
Method: Competitive binding assay. A competitive inhibition binding assay was performed using crude membrane homogenates prepared from HEK-hNPRA cells. To prepare membrane homogenates, cells were rinsed with phosphate-buffered saline and incubated for 15 minutes at 4° C. in hypotonic lysis buffer (10 mM Tris, pH 7.4+5 mM EDTA). Cells were transferred from plates to polypropylene tubes and homogenized. Homogenates were centrifuged at 25,000×g for 20 minutes. Pellets were resuspended in buffer consisting of 50 mM Tris (pH 7.4) and 1 mM EDTA, homogenized and centrifuged at 25,000×g for 20 minutes. Pellets were resuspended in buffer consisting of 100 mM Tris (pH 7.4) and 10 mM MgCl_2 and stored at −80° C. until needed. On the day of an assay, homogenates were thawed and homogenized. […] Assays were stopped by addition of cold wash buffer (phosphate-buffered saline) followed by filtration using a vacuum manifold. Bound radioactivity was determined using a gamma counter. […] Data were analyzed using GraphPad Prism® curve-fitting software.

Molecule | AUC [1] [µM·h] | Vd [1] [L/kg] | clearance [1] [mL/min/kg] | half-life [1] [min] | EC50 (accumulation of intracellular cGMP) [2] [nM] | Ki [3] [nM]
[Nle]AHFGGR[Nle]DRISAY[keto‑piperazine surrogate] (reading uncertain; also: further groups not given here, Linear synthetic construct modelled on mini-ANP) [Construct 1-16] | – | – | – | – | 340 | 88.5
[keto‑piperazine surrogate]AHFGGR[Nle]DRISAY[keto‑piperazine surrogate] (reading uncertain; also: further groups not given here, Linear synthetic construct) [Construct 1-30] | – | – | – | – | 80.5 | 8.7
[keto‑piperazine surrogate]AHFGGR[Nle]DRISAYR (reading uncertain; also: further groups not given here, Linear synthetic construct) [Construct 1-9] | – | – | – | – | 550 | 14.5

Other lines, results leading:

AUC [1] [µM·h] | Vd [1] [L/kg] | clearance [1] [mL/min/kg] | half-life [1] [min] | EC50 (accumulation of intracellular cGMP) [2] [nM] | Ki [3] [nM] | Molecule
0.139 | 0.6 | 131 | 6 | – | – | CCCC[C@@H]1NC[C@H](C(=O)N[C@@H](C)C(=O)N[C@@H](Cc2c[nH]cn2)C(=O)N[C@@H](Cc2ccccc2)C(=O)NCC(=O)NCC(=O)N[C@@H](CCCNC(=N)N)C(=O)N[C@@H](CCCC)C(=O)N[C@@H](CC(=O)O)C(=O)N[C@@H](CCCNC(=N)N)C(=O)N[C@H](C(=O)N[C@@H](CO)C(=O)N[C@@H](C)C(=O)N[C@@H](Cc2ccc(O)cc2)C(=O)N2C[C@H](C(N)=O)NC(=O)[C@@H]2CCCNC(=N)N)[C@@H](C)CC)NC1=O [Construct 1-30] ({Piperazin2one(3S-Bu,6R-CO)}-AHFGGR[Nle]DRISAY-X1)
– | – | – | – | ~12 | 0.2 | [keto‑piperazine surrogate]AHFGGR[Nle]DRISAY[keto‑piperazine surrogate] (reading uncertain; also: further groups not given here, Linear synthetic construct) [Construct 1-49]
